Bridge positions count the residues as written; N and C are the ends. Square brackets hold non-standard residues; d marks the D form. Ends that are not written are not given here. Nle = CCCC[C@H](N)C(=O)O
Legend:
ANP receptor (on ANP …) = biological target: ANP receptor (on ANP receptor-expressing LLC-PK1 cells); assay: cell-based or functional assay
[1] = biological target: MCR1 receptor (on MCR1 receptor-expressing B16-F1 cells) (UniProt Q01727 1-315); assay: cell-based or functional assay
Chain of MCR1 receptor (on MCR1 receptor-expressing B16-F1 cells) (Q01727 whole entry): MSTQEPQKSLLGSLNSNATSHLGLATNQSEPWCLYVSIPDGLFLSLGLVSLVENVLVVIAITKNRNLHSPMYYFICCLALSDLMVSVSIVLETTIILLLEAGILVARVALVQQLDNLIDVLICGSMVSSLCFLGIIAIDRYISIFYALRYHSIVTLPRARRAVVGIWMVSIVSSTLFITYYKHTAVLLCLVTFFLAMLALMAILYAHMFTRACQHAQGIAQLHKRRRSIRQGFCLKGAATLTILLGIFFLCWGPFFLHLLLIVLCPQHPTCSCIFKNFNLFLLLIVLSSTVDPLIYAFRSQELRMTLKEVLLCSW

EC50 on the production of cGMP (LLC-PK1 cells) (ANP receptor (on ANP …)) [nM]	EC50 on the production of cAMP (BC16-F1 cells) [1] [nM]	Binder
8.9		Ac-EHFRWGRRSSCFGGRMDRIGAQSGLGCNSFRY-NH2 (disulfide 11-27; SMILES CC[C@H](C)[C@@H]1NC(=O)[C@H](CCCNC(=N)N)NC(=O)[C@H](CC(=O)O)NC(=O)[C@H](CCSC)NC(=O)[C@H](CCCNC(=N)N)NC(=O)CNC(=O)CNC(=O)[C@H](Cc2ccccc2)NC(=O)[C@@H](NC(=O)[C@H](CO)NC(=O)[C@H](CO)NC(=O)[C@H](CCCNC(=N)N)NC(=O)[C@H](CCCNC(=N)N)NC(=O)CNC(=O)[C@H](Cc2c[nH]c3ccccc23)NC(=O)[C@H](CCCNC(=N)N)NC(=O)[C@H](Cc2ccccc2)NC(=O)[C@H](Cc2c[nH]cn2)NC(=O)[C@H](CCC(=O)O)NC(C)=O)CSSC[C@@H](C(=O)N[C@@H](CC(N)=O)C(=O)N[C@@H](CO)C(=O)N[C@@H](Cc2ccccc2)C(=O)N[C@@H](CCCNC(=N)N)C(=O)N[C@@H](Cc2ccc(O)cc2)C(N)=O)NC(=O)CNC(=O)[C@H](CC(C)C)NC(=O)CNC(=O)[C@H](CO)NC(=O)[C@H](CCC(N)=O)NC(=O)[C@H](C)NC(=O)CNC1=O) [bifunctional hormone of SEQ ID NO: 41]
216	31.4	Ac-H[dF]RWGKP[Nle]CFGGR[Nle]DRIGAQSGLGCNSFRY-NH2 (disulfide 9-25; SMILES CCCC[C@@H]1NC(=O)[C@H](CCCNC(=N)N)NC(=O)CNC(=O)CNC(=O)[C@H](Cc2ccccc2)NC(=O)[C@@H](NC(=O)[C@H](CCCC)NC(=O)[C@@H]2CCCN2C(=O)[C@H](CCCCN)NC(=O)CNC(=O)[C@H](Cc2c[nH]c3ccccc23)NC(=O)[C@H](CCCNC(=N)N)NC(=O)[C@@H](Cc2ccccc2)NC(=O)[C@H](Cc2c[nH]cn2)NC(C)=O)CSSC[C@@H](C(=O)N[C@@H](CC(N)=O)C(=O)N[C@@H](CO)C(=O)N[C@@H](Cc2ccccc2)C(=O)N[C@@H](CCCNC(=N)N)C(=O)N[C@@H](Cc2ccc(O)cc2)C(N)=O)NC(=O)CNC(=O)[C@H](CC(C)C)NC(=O)CNC(=O)[C@H](CO)NC(=O)[C@H](CCC(N)=O)NC(=O)[C@H](C)NC(=O)CNC(=O)[C@H]([C@@H](C)CC)NC(=O)[C@H](CCCNC(=N)N)NC(=O)[C@H](CC(=O)O)NC1=O) [bifunctional hormone of SEQ ID NO: 35]
132	62.5	Ac-H[dF]RWGKP[Nle]CHFGGR[Nle]DRISCYR-NH2 (disulfide 9-20; SMILES CCCC[C@@H]1NC(=O)[C@H](CCCNC(=N)N)NC(=O)CNC(=O)CNC(=O)[C@H](Cc2ccccc2)NC(=O)[C@H](Cc2c[nH]cn2)NC(=O)[C@@H](NC(=O)[C@H](CCCC)NC(=O)[C@@H]2CCCN2C(=O)[C@H](CCCCN)NC(=O)CNC(=O)[C@H](Cc2c[nH]c3ccccc23)NC(=O)[C@H](CCCNC(=N)N)NC(=O)[C@@H](Cc2ccccc2)NC(=O)[C@H](Cc2c[nH]cn2)NC(C)=O)CSSC[C@@H](C(=O)N[C@@H](Cc2ccc(O)cc2)C(=O)N[C@@H](CCCNC(=N)N)C(N)=O)NC(=O)[C@H](CO)NC(=O)[C@H]([C@@H](C)CC)NC(=O)[C@H](CCCNC(=N)N)NC(=O)[C@H](CC(=O)O)NC1=O) [bifunctional hormone of SEQ ID NO: 34]
	28	Ac-H[dF]RWGPKPVQGSGCPGRKMDRISSSSGLGCKVLRRH-NH2 (disulfide 14-30; SMILES CC[C@H](C)[C@@H]1NC(=O)[C@H](CCCNC(=N)N)NC(=O)[C@H](CC(=O)O)NC(=O)[C@H](CCSC)NC(=O)[C@H](CCCCN)NC(=O)[C@H](CCCNC(=N)N)NC(=O)CNC(=O)[C@@H]2CCCN2C(=O)[C@@H](NC(=O)CNC(=O)[C@H](CO)NC(=O)CNC(=O)[C@H](CCC(N)=O)NC(=O)[C@@H](NC(=O)[C@@H]2CCCN2C(=O)[C@H](CCCCN)NC(=O)[C@@H]2CCCN2C(=O)CNC(=O)[C@H](Cc2c[nH]c3ccccc23)NC(=O)[C@H](CCCNC(=N)N)NC(=O)[C@@H](Cc2ccccc2)NC(=O)[C@H](Cc2c[nH]cn2)NC(C)=O)C(C)C)CSSC[C@@H](C(=O)N[C@@H](CCCCN)C(=O)N[C@H](C(=O)N[C@@H](CC(C)C)C(=O)N[C@@H](CCCNC(=N)N)C(=O)N[C@@H](CCCNC(=N)N)C(=O)N[C@@H](Cc2c[nH]cn2)C(N)=O)C(C)C)NC(=O)CNC(=O)[C@H](CC(C)C)NC(=O)CNC(=O)[C@H](CO)NC(=O)[C@H](CO)NC(=O)[C@H](CO)NC(=O)[C@H](CO)NC1=O) [bifunctional hormone of SEQ ID NO: 46]
86.8		Ac-HRWGKPMCFGGRMDRIGAQSGLGCNSFRY-NH2 (disulfide 8-24; SMILES CC[C@H](C)[C@@H]1NC(=O)[C@H](CCCNC(=N)N)NC(=O)[C@H](CC(=O)O)NC(=O)[C@H](CCSC)NC(=O)[C@H](CCCNC(=N)N)NC(=O)CNC(=O)CNC(=O)[C@H](Cc2ccccc2)NC(=O)[C@@H](NC(=O)[C@H](CCSC)NC(=O)[C@@H]2CCCN2C(=O)[C@H](CCCCN)NC(=O)CNC(=O)[C@H](Cc2c[nH]c3ccccc23)NC(=O)[C@H](CCCNC(=N)N)NC(=O)[C@H](Cc2c[nH]cn2)NC(C)=O)CSSC[C@@H](C(=O)N[C@@H](CC(N)=O)C(=O)N[C@@H](CO)C(=O)N[C@@H](Cc2ccccc2)C(=O)N[C@@H](CCCNC(=N)N)C(=O)N[C@@H](Cc2ccc(O)cc2)C(N)=O)NC(=O)CNC(=O)[C@H](CC(C)C)NC(=O)CNC(=O)[C@H](CO)NC(=O)[C@H](CCC(N)=O)NC(=O)[C@H](C)NC(=O)CNC1=O) [bifunctional hormone of SEQ ID NO: 43]
1430		[Nle]EHFGGR[Nle]DRISKYRH[dF]RW-NH2 (lactam 2-13; N-terminus assumed; SMILES CCCC[C@@H]1NC(=O)[C@H](CCCNC(=N)N)NC(=O)CNC(=O)CNC(=O)[C@H](Cc2ccccc2)NC(=O)[C@H](Cc2c[nH]cn2)NC(=O)[C@@H](NC(=O)[C@@H](N)CCCC)CCC(=O)NCCCC[C@@H](C(=O)N[C@@H](Cc2ccc(O)cc2)C(=O)N[C@@H](CCCNC(=N)N)C(=O)N[C@@H](Cc2c[nH]cn2)C(=O)N[C@H](Cc2ccccc2)C(=O)N[C@@H](CCCNC(=N)N)C(=O)N[C@@H](Cc2c[nH]c3ccccc23)C(N)=O)NC(=O)[C@H](CO)NC(=O)[C@H]([C@@H](C)CC)NC(=O)[C@H](CCCNC(=N)N)NC(=O)[C@H](CC(=O)O)NC1=O) [bifunctional hormone of SEQ ID NO: 29]
69	10.4	Ac-H[dF]RWGKPMCFGGRMDRIGAQSGLGCNSFRY-NH2 (disulfide 9-25; SMILES CC[C@H](C)[C@@H]1NC(=O)[C@H](CCCNC(=N)N)NC(=O)[C@H](CC(=O)O)NC(=O)[C@H](CCSC)NC(=O)[C@H](CCCNC(=N)N)NC(=O)CNC(=O)CNC(=O)[C@H](Cc2ccccc2)NC(=O)[C@@H](NC(=O)[C@H](CCSC)NC(=O)[C@@H]2CCCN2C(=O)[C@H](CCCCN)NC(=O)CNC(=O)[C@H](Cc2c[nH]c3ccccc23)NC(=O)[C@H](CCCNC(=N)N)NC(=O)[C@@H](Cc2ccccc2)NC(=O)[C@H](Cc2c[nH]cn2)NC(C)=O)CSSC[C@@H](C(=O)N[C@@H](CC(N)=O)C(=O)N[C@@H](CO)C(=O)N[C@@H](Cc2ccccc2)C(=O)N[C@@H](CCCNC(=N)N)C(=O)N[C@@H](Cc2ccc(O)cc2)C(N)=O)NC(=O)CNC(=O)[C@H](CC(C)C)NC(=O)CNC(=O)[C@H](CO)NC(=O)[C@H](CCC(N)=O)NC(=O)[C@H](C)NC(=O)CNC1=O) [bifunctional hormone of SEQ ID NO: 33]
	365	Ac-H[dF]RWSPKMVQGSGCPGRKMDRISSSSGLGCKVLRRH-NH2 (disulfide 14-30; SMILES CC[C@H](C)[C@@H]1NC(=O)[C@H](CCCNC(=N)N)NC(=O)[C@H](CC(=O)O)NC(=O)[C@H](CCSC)NC(=O)[C@H](CCCCN)NC(=O)[C@H](CCCNC(=N)N)NC(=O)CNC(=O)[C@@H]2CCCN2C(=O)[C@@H](NC(=O)CNC(=O)[C@H](CO)NC(=O)CNC(=O)[C@H](CCC(N)=O)NC(=O)[C@@H](NC(=O)[C@H](CCSC)NC(=O)[C@H](CCCCN)NC(=O)[C@@H]2CCCN2C(=O)[C@H](CO)NC(=O)[C@H](Cc2c[nH]c3ccccc23)NC(=O)[C@H](CCCNC(=N)N)NC(=O)[C@@H](Cc2ccccc2)NC(=O)[C@H](Cc2c[nH]cn2)NC(C)=O)C(C)C)CSSC[C@@H](C(=O)N[C@@H](CCCCN)C(=O)N[C@H](C(=O)N[C@@H](CC(C)C)C(=O)N[C@@H](CCCNC(=N)N)C(=O)N[C@@H](CCCNC(=N)N)C(=O)N[C@@H](Cc2c[nH]cn2)C(N)=O)C(C)C)NC(=O)CNC(=O)[C@H](CC(C)C)NC(=O)CNC(=O)[C@H](CO)NC(=O)[C@H](CO)NC(=O)[C@H](CO)NC(=O)[C@H](CO)NC1=O) [bifunctional hormone of SEQ ID NO: 45]
	1.2	Ac-H[dF]RWGKPMCFGGRMGAQSGLGCNSFRY-NH2 (disulfide 9-22; SMILES CSCC[C@@H]1NC(=O)[C@H](CCCNC(=N)N)NC(=O)CNC(=O)CNC(=O)[C@H](Cc2ccccc2)NC(=O)[C@@H](NC(=O)[C@H](CCSC)NC(=O)[C@@H]2CCCN2C(=O)[C@H](CCCCN)NC(=O)CNC(=O)[C@H](Cc2c[nH]c3ccccc23)NC(=O)[C@H](CCCNC(=N)N)NC(=O)[C@@H](Cc2ccccc2)NC(=O)[C@H](Cc2c[nH]cn2)NC(C)=O)CSSC[C@@H](C(=O)N[C@@H](CC(N)=O)C(=O)N[C@@H](CO)C(=O)N[C@@H](Cc2ccccc2)C(=O)N[C@@H](CCCNC(=N)N)C(=O)N[C@@H](Cc2ccc(O)cc2)C(N)=O)NC(=O)CNC(=O)[C@H](CC(C)C)NC(=O)CNC(=O)[C@H](CO)NC(=O)[C@H](CCC(N)=O)NC(=O)[C@H](C)NC(=O)CNC1=O) [bifunctional hormone of SEQ ID NO: 44]
3.3		SLRRSSCFGGRMDRIGAQSGLGCNSFRY (disulfide 7-23; also: C-terminal amide in Table IV, not in Table I) [native ANP (SEQ ID NO: 2)]

Source: patent US20090011997A1 (THERATECHNOLOGIES, published 2009)
